Positions count from the first letter of the chain named.
B1: GST-NCOA4 (amino acids 383–522) C418S (domain or fragment, human, UniProt Q13772 383-522, looked up)
chain: SMVTEDWLVQNHQDPCKVEEVCRANEPCTSFAECVSDENCEKEALYKWLLKKEGKDKNGMPVEPKPEPEKHKDSLNMWLCPRKEVIEQTKAPKAMTPSRIADSFQVIKNSPLSEWLIRPPYKEGSPKEVPGTEDRAGKQK
notes: C418S; Absorption at 330 and 420 nm not attenuated (Fe–S cluster kept); source: E. coli BL21-CodonPlus (DE3)-RIPL, purified (Glutathione Sepharose, PD-10 desalting)
B2: GST-NCOA4 (amino acids 383–522) WT (domain or fragment, human, UniProt Q13772 383-522, looked up)
chain: B1 chain with S36C
notes: Vector pGEX6p-1; Bacteria were grown with Cys and FAC; the UV–visible spectrum resembles that of 2Fe–2S cluster proteins; also called glutathione S-transferase (GST)-fused NCOA4 (amino acids 383–522); source: E. coli BL21-CodonPlus (DE3)-RIPL, purified (Glutathione Sepharose, PD-10 desalting)

Molecular target: T1, His-HERC2 (amino acids 2540–2700) (human, UniProt O95714 2540-2700)
T1 construct: source: E. coli BL21-CodonPlus (DE3)-RIPL, purified (nickel–nitrilotriacetic acid beads, PD-10 desalting)
T1 sequence (looked up): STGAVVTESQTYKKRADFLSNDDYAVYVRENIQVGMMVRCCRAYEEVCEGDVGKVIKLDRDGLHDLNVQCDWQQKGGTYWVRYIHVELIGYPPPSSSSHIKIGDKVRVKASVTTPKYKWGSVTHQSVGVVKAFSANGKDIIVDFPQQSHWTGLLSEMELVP
Assay: pull-down; GST-tagged proteins (2 μg) and His-HERC2 (amino acids 2540–2700) (2.8 μg) in 20 mM Tris–HCl pH 7.5, 150 mM NaCl, 0.1% Triton X-100, 1 mM DTT; Glutathione Sepharose beads, 1 h at 4 °C; gel stained with CBB
Conditions: both partners purified

| Binder | binding result |
| --- | --- |
| B1 | binds |
| B2 | binds |
